Consider one substance from patent US20090068174A1, “THERAPEUTIC ALKALINE PROTEASE COMPOSITIONS AND USE IN FACILITATING THE TRANSPORT OF AGENTS ACROSS THE GASTROINTESTINAL MUCOSAL LINING” (Kansas University Medical Center Research Institute, Inc., priority 2007, published 2009).

The target of this test is T1, mouse recombinant TNF-α (Mus musculus, UniProt P06804).
T1 sequence (P06804 80-235 limits assumed): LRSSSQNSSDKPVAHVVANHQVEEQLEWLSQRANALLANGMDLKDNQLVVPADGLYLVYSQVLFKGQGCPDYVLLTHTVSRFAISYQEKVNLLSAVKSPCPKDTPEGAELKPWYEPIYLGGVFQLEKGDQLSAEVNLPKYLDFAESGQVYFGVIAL
Put plainly: Bioactivity of protease-treated mouse TNF-α in the C2C12 cell bioassay (nitrite). It counts as cell-based. The following applies: C2C12 cells, NO (nitrite) production. The procedure: Effects of three purified A. oryzae proteases on the bioactivity of mouse TNF-α (A) protease powder prepared according to Example 1 (preparation); (B) alkaline protease; (C) 26 kDa protease; and (D) deuterolysin. 50 ng quantities of TNF-α were incubated at 37° C. for 24 hours with the indicated quantities of the protease powder prepared according to Example 1 or one of the three purified proteases. The reactions were then stopped by addition of FBS and samples were added to C2C12 cells that had been costimulated with mouse IFN-γ. Twenty-four hours later, nitrite was measured in culture fluids.
The protease powder prepared according to Example 1 inactivates mouse recombinant TNF-α. 50 ng of the cytokine was treated for 24 hours with either 0 (□); 5 (∘); or 10 ng ([…]) of either Pseudomonas elastase (A) or protease powder prepared according to Example 1 (B). Then the residual bioactivity of the cytokine was measured by its ability to co-activate mouse C2C12 myoblast cells in the presence of excess IFN-γ for the production of NO (nitrite).
The protease powder prepared according to Example 1 inactivates mouse recombinant TNF-α by limited proteolysis. […]

Take “Pseudomonas elastase: Pseudomonas protease used as a positive control [reference compound]”: the “Effect on bioactivity of mouse TNF-α” value is on record as “led to a loss of its biological activity”.
